Assay results reported in article PMC9828637, “Pol32, an accessory subunit of DNA polymerase delta, plays an essential role in genome stability and pathogenesis of Candida albicans” (Gut Microbes, 2023).

Target: T1, CaPol32 (wild type, GST tag cleaved) (C. albicans, UniProt A0A1D8PDM8 1-403)
T1 construct: Pol32, smallest subunit of DNA polymerase delta, C. albicans SC5314; ORF amplified from genomic DNA with primers NAP39 (start codon) and NAP40 (stop codon); length 403 aa, 46.0 kDa; source: S. cerevisiae protease deficient strain, purified (glutathione-Sepharose 4B, GST cleaved with PreScission protease); not shown: GST, N-terminal, cleaved
T1 sequence (looked up): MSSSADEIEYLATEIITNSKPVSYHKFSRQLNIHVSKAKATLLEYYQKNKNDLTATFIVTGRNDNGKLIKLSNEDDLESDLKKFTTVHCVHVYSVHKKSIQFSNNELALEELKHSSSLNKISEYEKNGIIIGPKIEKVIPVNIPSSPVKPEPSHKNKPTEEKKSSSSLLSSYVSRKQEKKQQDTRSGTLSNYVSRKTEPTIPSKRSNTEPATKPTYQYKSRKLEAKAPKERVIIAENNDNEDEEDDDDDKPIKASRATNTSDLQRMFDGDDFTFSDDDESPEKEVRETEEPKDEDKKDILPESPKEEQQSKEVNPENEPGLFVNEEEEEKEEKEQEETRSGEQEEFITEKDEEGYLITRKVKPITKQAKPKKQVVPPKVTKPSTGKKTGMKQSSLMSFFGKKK
Test: ITC; MicroCal PEAQ-ITC, 25°C, 20 mM HEPES pH 7.4, 150 mM NaCl; 20 μM CaPol32 or CaPol32 (F398A, F399A) in the cell, 250 μM CaPCNA in the syringe, 25 injections of 1.5 μl; one-site binding model
Conditions: both partners purified

B1: CaPCNA (natural protein, C. albicans, UniProt Q5AMN0 1-259, looked up)
chain: MLEGKFEEAALLKKVVEAIKDCVKKCNFNCSEHGITVQAVDDSRVLLVSLLIGQTSFSEYRCDRDVTLGIDLESFSKIIKSANNEDFLTLLAEDSPDQIMAILEEKQKEKISEYSLKLMDIDSEFLQIDDMEYDAVVNMPSSDFAKLVRDLKNLSESLRVVVTKDSVKFTSEGDSGSGSVILKPYTNLKNERESVTISLDDPVDLTFGLKYLNDIVKAATLSDVITIKLADKTPALFEFKMQSGGYLRFYLAPKFDDDE
notes: PCNA (proliferating cell nuclear antigen, DNA sliding clamp), C. albicans; it calls PCNA trimeric without measuring this here; also called proliferating cell nuclear antigen of C. albicans; source: E. coli BL21 DE3, purified (glutathione-Sepharose 4B, GST cleaved with PreScission protease)
With B1 the Kd was about 6.75 µM, the dH was about -27 kcal/mol and the “stoichiometry N” value was 1 CaPol32 per PCNA trimer.
